Read-outs that look alike come from different tables or passages of the source. Bridges are numbered along the chain shown (N, C = ends). Primed or numbered codes have the meaning given here. Where no end group is shown, it is not given here. [ ]: non-standard residue; d: D form. Phg′ = phenylglycine, D or L; Mpa = O=C(O)CCS
What was measured:
[1] = biological target: T1, human neutral endopeptidase 24.11 (human), P08473; assay: cell-based or functional assay
T1 chain: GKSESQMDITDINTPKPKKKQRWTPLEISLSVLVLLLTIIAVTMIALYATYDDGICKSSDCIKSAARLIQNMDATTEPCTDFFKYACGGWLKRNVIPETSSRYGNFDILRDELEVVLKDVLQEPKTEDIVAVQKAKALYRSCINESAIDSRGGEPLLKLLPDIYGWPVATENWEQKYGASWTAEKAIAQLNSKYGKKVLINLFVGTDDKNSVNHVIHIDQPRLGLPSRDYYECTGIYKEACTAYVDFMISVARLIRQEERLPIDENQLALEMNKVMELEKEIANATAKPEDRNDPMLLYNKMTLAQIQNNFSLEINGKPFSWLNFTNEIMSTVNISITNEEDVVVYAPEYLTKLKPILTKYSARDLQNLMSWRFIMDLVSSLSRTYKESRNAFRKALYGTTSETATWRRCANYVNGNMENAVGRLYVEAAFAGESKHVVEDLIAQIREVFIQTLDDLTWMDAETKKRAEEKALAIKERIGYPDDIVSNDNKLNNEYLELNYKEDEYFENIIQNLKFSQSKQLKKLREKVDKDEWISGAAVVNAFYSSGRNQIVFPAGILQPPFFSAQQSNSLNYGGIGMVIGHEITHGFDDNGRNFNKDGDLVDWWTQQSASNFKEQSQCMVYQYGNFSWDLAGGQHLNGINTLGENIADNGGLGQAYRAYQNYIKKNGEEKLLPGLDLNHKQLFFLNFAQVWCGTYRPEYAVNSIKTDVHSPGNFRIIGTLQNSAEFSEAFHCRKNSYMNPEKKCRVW

[2] = biological target: T2, human natriuretic peptide clearance receptor-C (human), P17342; assay: competition binding, Table I; tracer and receptor format not given
T2 chain: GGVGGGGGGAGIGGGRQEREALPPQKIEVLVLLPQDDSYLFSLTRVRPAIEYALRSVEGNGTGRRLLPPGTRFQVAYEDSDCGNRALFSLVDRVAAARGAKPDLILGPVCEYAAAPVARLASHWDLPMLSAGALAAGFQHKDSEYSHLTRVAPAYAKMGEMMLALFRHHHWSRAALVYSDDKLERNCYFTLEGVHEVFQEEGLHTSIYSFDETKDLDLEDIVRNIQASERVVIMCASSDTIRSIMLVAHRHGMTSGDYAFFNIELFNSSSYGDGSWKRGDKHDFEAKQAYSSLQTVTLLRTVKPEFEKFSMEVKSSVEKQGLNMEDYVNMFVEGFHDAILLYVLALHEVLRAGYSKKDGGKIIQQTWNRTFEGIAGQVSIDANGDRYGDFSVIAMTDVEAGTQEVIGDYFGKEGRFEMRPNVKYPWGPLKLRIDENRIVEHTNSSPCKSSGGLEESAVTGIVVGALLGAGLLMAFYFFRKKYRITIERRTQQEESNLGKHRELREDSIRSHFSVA

[3] = biological target: T3, human neutral endopeptidase 24.11 (human, UniProt P08473 2-750, limits assumed); assay: cell-based or functional assay
[4] = biological target: T4, human natriuretic peptide clearance receptor-C (human, UniProt P17342 27-541); assay: competition binding, Table I; tracer and receptor format not given
T4 construct: whole, on cells; also called hNPR-C; human NPR-C
T4 sequence (looked up): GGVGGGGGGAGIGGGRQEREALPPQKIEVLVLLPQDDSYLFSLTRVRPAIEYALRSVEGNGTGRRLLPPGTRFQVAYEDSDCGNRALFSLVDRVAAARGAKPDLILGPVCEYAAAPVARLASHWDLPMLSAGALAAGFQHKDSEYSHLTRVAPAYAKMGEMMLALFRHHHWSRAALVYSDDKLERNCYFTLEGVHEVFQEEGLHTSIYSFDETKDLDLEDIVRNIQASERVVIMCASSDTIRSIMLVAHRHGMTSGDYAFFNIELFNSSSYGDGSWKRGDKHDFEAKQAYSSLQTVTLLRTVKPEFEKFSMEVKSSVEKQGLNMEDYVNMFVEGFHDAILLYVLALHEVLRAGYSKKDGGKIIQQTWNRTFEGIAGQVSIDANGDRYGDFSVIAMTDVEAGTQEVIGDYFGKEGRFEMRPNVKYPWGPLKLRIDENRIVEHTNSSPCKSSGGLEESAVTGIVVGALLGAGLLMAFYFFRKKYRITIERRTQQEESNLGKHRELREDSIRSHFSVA

[5] = biological target: T5, human natriuretic peptide receptor-A (human, UniProt P16066 33-1061); assay: as above
T5 construct: whole, on cells; also called hNPR-A; human NPR-A
T5 sequence (looked up): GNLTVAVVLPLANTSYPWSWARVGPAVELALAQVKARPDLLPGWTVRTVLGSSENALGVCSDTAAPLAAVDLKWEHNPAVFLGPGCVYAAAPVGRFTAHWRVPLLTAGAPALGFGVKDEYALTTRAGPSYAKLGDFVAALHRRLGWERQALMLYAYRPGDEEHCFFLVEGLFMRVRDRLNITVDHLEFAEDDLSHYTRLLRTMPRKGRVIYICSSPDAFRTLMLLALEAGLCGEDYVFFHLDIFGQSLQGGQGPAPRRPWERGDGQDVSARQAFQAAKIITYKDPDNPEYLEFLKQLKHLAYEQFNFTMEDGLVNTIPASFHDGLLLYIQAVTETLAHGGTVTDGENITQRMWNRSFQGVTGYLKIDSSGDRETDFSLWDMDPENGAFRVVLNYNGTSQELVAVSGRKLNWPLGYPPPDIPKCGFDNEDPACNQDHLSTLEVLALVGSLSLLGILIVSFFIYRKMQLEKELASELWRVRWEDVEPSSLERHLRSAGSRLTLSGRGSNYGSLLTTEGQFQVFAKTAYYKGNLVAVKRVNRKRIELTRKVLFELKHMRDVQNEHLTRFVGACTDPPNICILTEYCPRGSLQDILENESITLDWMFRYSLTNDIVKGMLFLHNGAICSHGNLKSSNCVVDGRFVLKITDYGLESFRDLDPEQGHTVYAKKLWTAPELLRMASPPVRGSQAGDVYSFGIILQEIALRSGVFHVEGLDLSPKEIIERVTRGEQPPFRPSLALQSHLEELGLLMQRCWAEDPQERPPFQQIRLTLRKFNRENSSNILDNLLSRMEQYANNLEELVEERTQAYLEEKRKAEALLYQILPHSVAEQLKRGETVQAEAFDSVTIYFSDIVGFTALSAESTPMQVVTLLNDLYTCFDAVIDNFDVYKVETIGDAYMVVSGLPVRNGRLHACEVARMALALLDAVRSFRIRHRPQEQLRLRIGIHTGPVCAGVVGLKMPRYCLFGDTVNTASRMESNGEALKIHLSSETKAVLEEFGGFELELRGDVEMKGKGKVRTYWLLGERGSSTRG

[6] = biological target: T3, human neutral endopeptidase 24.11; assay: cell-based or functional assay; remark: listed apart in the source
[7] = biological target: T6, human natriuretic peptide receptor-A (human), P16066; assay: competition binding, Table I; tracer and receptor format not given
T6 chain: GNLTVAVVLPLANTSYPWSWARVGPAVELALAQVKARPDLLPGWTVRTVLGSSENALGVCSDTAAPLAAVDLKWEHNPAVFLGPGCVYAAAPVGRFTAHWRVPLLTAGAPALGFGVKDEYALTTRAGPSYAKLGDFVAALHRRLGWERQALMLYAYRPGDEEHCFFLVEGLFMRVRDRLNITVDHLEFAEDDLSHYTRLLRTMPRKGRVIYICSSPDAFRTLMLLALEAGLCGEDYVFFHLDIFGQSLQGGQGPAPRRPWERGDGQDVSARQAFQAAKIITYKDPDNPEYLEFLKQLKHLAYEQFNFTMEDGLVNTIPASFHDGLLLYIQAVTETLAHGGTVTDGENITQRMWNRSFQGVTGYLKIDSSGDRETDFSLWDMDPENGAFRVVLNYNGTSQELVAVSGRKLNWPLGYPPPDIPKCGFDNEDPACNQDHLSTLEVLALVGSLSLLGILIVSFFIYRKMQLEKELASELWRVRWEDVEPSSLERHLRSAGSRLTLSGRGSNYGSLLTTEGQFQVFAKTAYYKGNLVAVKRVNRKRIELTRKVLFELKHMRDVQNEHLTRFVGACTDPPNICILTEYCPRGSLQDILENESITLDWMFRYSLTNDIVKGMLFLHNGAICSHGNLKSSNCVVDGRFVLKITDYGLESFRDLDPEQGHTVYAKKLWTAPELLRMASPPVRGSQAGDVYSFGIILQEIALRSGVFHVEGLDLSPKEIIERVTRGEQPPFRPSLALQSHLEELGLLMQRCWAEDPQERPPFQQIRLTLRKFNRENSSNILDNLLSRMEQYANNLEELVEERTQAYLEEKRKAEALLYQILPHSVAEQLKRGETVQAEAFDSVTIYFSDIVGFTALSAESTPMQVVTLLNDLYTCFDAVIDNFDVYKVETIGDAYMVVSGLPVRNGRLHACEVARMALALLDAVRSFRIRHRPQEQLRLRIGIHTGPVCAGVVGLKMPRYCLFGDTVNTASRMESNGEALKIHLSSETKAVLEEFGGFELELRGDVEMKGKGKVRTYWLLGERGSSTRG

[8] = biological target: T2, human natriuretic peptide clearance …; assay: competition binding, membranes; conditions: chains peptide; modification not given
[9] = biological target: T6, human natriuretic peptide receptor-A …; assay: competition binding vs 125I-rat ANP, membranes; conditions: chains peptide; modification not given

## SLRRSSCFTGSIDRIRAQSGLGCNSFRY (modifications not checked) [ANF 27]
[1]
  Half-Life: 334 min
[2]
  IC50: 1000 nM

## SLRRSSCFGGRMDRIGAQSGLGCNSFRY (modifications not checked) [hANF(1-28), wild-type human atrial natriuretic factor]
[1]
  Half-Life: 136 min

B1: ANF 24 (peptide)
peptide: SLRRSSCFGGRIDRIRAQSGLGCNSFRY
modifications: disulfide 7-23
notes: Synthetic; Cys7-Cys23 disulfide; also called hANF(1-28) M12I, G16R
[3]
  Half-Life: 600 min
[4]
  IC50: 5.64 nM

B2: ANF 50 (peptide)
peptide: SLRRSSCFTGSMDRIGAQSGLGCNSFRY
modifications: disulfide 7-23
notes: Cys7-Cys23 disulfide; also called hANF(1-28) G9T, R11S
[3]
  Half-Life: 93 min
[5]
  IC50: 0.57 nM
[4]
  IC50: 251 nM

## SLRRSSCFGGRIDSIRAQSGLGCNSFRY (disulfide 7-23, also called hANF(1-28) M12I, R14S, G16R) [ANF 25]
[6]
  Half-Life: 199 min
[5]
  IC50: 0.056 nM
[4]
  IC50: 3.31 nM

## TAPRSLRRSSCFTGSIDRIRAQSGLGCNSFRY (modifications not checked) [ANF 76]
[1]
  Half-Life: 1410 min
[7]
  IC50: 8.9 pM

## TAPRSLRRSSCFGGRIDRIRAQSGLGCNSFRY (disulfide 11-27) [ANF 23]
[3]
  Half-Life: 737 min

## TAPRSLRRSSCFGGRMDRIGAQSGLGCNSFRY [urodilatin]
[3]
  Half-Life: 1860 min
[6]
  Half-Life: 1630 min

B3: ANF 81 (peptide)
peptide: [Mpa]F[dA]GSIDRIRAQSGLGCNSFRY
modifications: disulfide 1-17; not fully specified; printed as Mpa-Phe-(D-Ala)-Gly-Ser-Ile-Asp-Arg-Ile-Arg-Ala-Gln-Ser-Gly-Leu-Gly-Cys-Asn-Ser-Phe-Arg-Tyr
[5]
  IC50: 1.4 nM
[4]
  IC50: 3860 nM

## SLRRSSCFGGRIDRIREASGLGCNSFRY [ANF 99]
[8]
  IC50: 121 nM
[9]
  IC50: 0.145 nM

## SLRRSSC[Phg′]TGSIDRIRAQSGLGCNSFRY (disulfide 7-23; also: Phg configuration D or L not given here) [ANF 100-1]
[5]
  IC50: 0.187 nM
[4]
  IC50: 3230 nM

From patent publication US6525022B1, “Receptor specific atrial natriuretic peptides” (Genentech, Inc., priority 1993, dated 2003)
